± gives the uncertainty stated by the source.
B1: TOX high mobility group box family member 3, residues 256 to 323; numbered along this chain, O15405 (parent)
chain: QKPVSAYALFFRDTQAAIKGQNPNATFGEVSKIVASMWDSLGEEQKQVYKRKTEAAKKEYLKALAAYR

Variants of: B1
Test: abundance fitness (aPCA) (normalised: wild type 0, dead -1); higher = more abundant; growth selection in yeast, the domain comes from the species named
Conditions: Homo sapiens
In the case of LKPVSAYALFFRDTQAAIKGQNPNATFGEVSKIVASMWDSLGEEQKQVYKRKTEAAKKEYLKALAAYR, the abundance fitness is reported as -0.124 ± 0.072.
Work on QKPVSAYALFFRDTQAAIKGQNPNATFGEVSKIVASMWDSLGEEQKQVYKRKTEAAKKEYLKALAALR yielded an abundance fitness of -0.044 ± 0.057.
Work on QKPVSAYALFFRDTQAAKKGQNPNATFGEVSKIVASMWDSLGEEQKQVYKRKTEAAKKEYLKALAAYR yielded an abundance fitness of -1.18 ± 0.43.
Variant QKPVSAYALFFRDTQAAIKGQNPNATFGEVSKIVASMWDSYGEEQKQVYKRKTEAAKKEYLKALAAYR has an abundance fitness of -0.902 ± 0.23.
Work on QKPVSAYALFFRDTQAAIKGQNPNATFGEVSKIVASMWDSVGEEQKQVYKRKTEAAKKEYLKALAAYR yielded an abundance fitness of -0.29 ± 0.086.
For QKPTSAYALFFRDTQAAIKGQNPNATFGEVSKIVASMWDSLGEEQKQVYKRKTEAAKKEYLKALAAYR, the abundance fitness was -0.073 ± 0.079.
Variant QKPFSAYALFFRDTQAAIKGQNPNATFGEVSKIVASMWDSLGEEQKQVYKRKTEAAKKEYLKALAAYR has an abundance fitness of -0.148 ± 0.078.
Work on QKPVSAYALFFRDTQAAIKGQNPNATFDEVSKIVASMWDSLGEEQKQVYKRKTEAAKKEYLKALAAYR yielded an abundance fitness of 0.098 ± 0.083.
In the case of QKPVSAYALFFRDTQAAIKGQNPNATFGEVSKIVASMMDSLGEEQKQVYKRKTEAAKKEYLKALAAYR, the abundance fitness is reported as -0.416 ± 0.098.
Variant QKPVSAYALRFRDTQAAIKGQNPNATFGEVSKIVASMWDSLGEEQKQVYKRKTEAAKKEYLKALAAYR has an abundance fitness of -0.751 ± 0.1.
Variant QKPVSAYALGFRDTQAAIKGQNPNATFGEVSKIVASMWDSLGEEQKQVYKRKTEAAKKEYLKALAAYR has an abundance fitness of -0.957 ± 0.14.
In the case of QKPVSAYALFFRDTQAAIKGQNPNATFGEVSKIVASMWDSLGEEQKQVYKRKTEAAKKEYLKASAAYR, the abundance fitness is reported as 0.128 ± 0.057.
For QKPVSAYALFFRDTQALIKGQNPNATFGEVSKIVASMWDSLGEEQKQVYKRKTEAAKKEYLKALAAYR, the abundance fitness was -0.071 ± 0.056.
With QKPVSAYALFFRDTQAMIKGQNPNATFGEVSKIVASMWDSLGEEQKQVYKRKTEAAKKEYLKALAAYR the abundance fitness was -0.169 ± 0.098.
QKPVSAYALFFRDTQAAIKGQNPNATFGEVSKIVASMWDSLGEEQKQVYKRKTNAAKKEYLKALAAYR showed an abundance fitness of -0.117 ± 0.07.
QKPVSAYALFFRHTQAAIKGQNPNATFGEVSKIVASMWDSLGEEQKQVYKRKTEAAKKEYLKALAAYR showed an abundance fitness of -0.235 ± 0.12.
QKPVSAYALFFRDTQAAIKGQPPNATFGEVSKIVASMWDSLGEEQKQVYKRKTEAAKKEYLKALAAYR gave an abundance fitness of -0.824 ± 0.28.
QKPVSAYALFFRDTQAAIKGQEPNATFGEVSKIVASMWDSLGEEQKQVYKRKTEAAKKEYLKALAAYR showed an abundance fitness of -0.443 ± 0.14.
Variant QKPVSAYALFFRDTQAAIKGQNPNATFGEVSKIVASMWMSLGEEQKQVYKRKTEAAKKEYLKALAAYR has an abundance fitness of -0.191 ± 0.08.
Work on QKPVSAYALFFRDTQAAIKGQNPNATFGEVSKIVASMWDSLGEEQEQVYKRKTEAAKKEYLKALAAYR yielded an abundance fitness of -1.05 ± 0.19.
Variant QKPVSAYALFFRDTQAAIKGQNPNATFGEVSKIVASMWDSLGEEQKQVYKFKTEAAKKEYLKALAAYR has an abundance fitness of -0.256 ± 0.066.
Variant QKPVSAYALFFRDTQAAIKGQNPNATFGEVSKIVASMWDSLGEEQKQVYKLKTEAAKKEYLKALAAYR has an abundance fitness of 0.021 ± 0.04.
QKPVSAYALFFRDTQAAIKGQNPNATFGEVSKIVASMWDSLGELQKQVYKRKTEAAKKEYLKALAAYR gave an abundance fitness of -0.556 ± 0.062.
Variant QKPVSAYALFFRDTQAAIKGQNPNATFGEVSKIVASMWDSLGEVQKQVYKRKTEAAKKEYLKALAAYR has an abundance fitness of -0.209 ± 0.046.
With QKPVSAYALFFEDTQAAIKGQNPNATFGEVSKIVASMWDSLGEEQKQVYKRKTEAAKKEYLKALAAYR the abundance fitness was 0.054 ± 0.1.
QKPVSAYALFFWDTQAAIKGQNPNATFGEVSKIVASMWDSLGEEQKQVYKRKTEAAKKEYLKALAAYR showed an abundance fitness of -0.587 ± 0.12.
With QKPVSAYALFFIDTQAAIKGQNPNATFGEVSKIVASMWDSLGEEQKQVYKRKTEAAKKEYLKALAAYR the abundance fitness was -0.221 ± 0.11.
QKPVSAYALFFRDTQAAIKGQNINATFGEVSKIVASMWDSLGEEQKQVYKRKTEAAKKEYLKALAAYR showed an abundance fitness of -0.521 ± 0.17.
Variant QKPVSAYALFFRDTQAAIKGQNPNATFGEVTKIVASMWDSLGEEQKQVYKRKTEAAKKEYLKALAAYR has an abundance fitness of -0.118 ± 0.08.
In the case of QKPVSAYALFFRDTQAAIKGQNPNATFGEVSKIVASMWDSLGEEQKQVYKRKTEAAKTEYLKALAAYR, the abundance fitness is reported as -0.079 ± 0.059.
With QKPVSAYALFFRDTQAAIKGQNPNATFGEVSKIVASMWDSLGEEQKQVYKRKTEAAKGEYLKALAAYR the abundance fitness was -0.068 ± 0.051.
QKPVSAYALFFRDTQAAIKGQNPNPTFGEVSKIVASMWDSLGEEQKQVYKRKTEAAKKEYLKALAAYR showed an abundance fitness of -0.874 ± 0.15.
QKPVSAYALFFRDTQAAIKGQNPNSTFGEVSKIVASMWDSLGEEQKQVYKRKTEAAKKEYLKALAAYR gave an abundance fitness of -0.287 ± 0.045.
QKPVSAYALFFRDTQAAIKGQNPNMTFGEVSKIVASMWDSLGEEQKQVYKRKTEAAKKEYLKALAAYR gave an abundance fitness of -0.212 ± 0.086.
QKPVSAYALFFRDTQAAIKGQNPNRTFGEVSKIVASMWDSLGEEQKQVYKRKTEAAKKEYLKALAAYR showed an abundance fitness of -0.088 ± 0.052.
QKPVSAYALFFRDTQAAIKGQNPNATFGEVSKIVASMWDSLGHEQKQVYKRKTEAAKKEYLKALAAYR showed an abundance fitness of -0.27 ± 0.13.
QKPVSAYALFFRDTQAAIKGQNPNATFGEVSKIVASMWDSLGMEQKQVYKRKTEAAKKEYLKALAAYR showed an abundance fitness of -0.255 ± 0.12.
Variant QKPVSAYALFFRDTQAAIKGQNPNATFGELSKIVASMWDSLGEEQKQVYKRKTEAAKKEYLKALAAYR has an abundance fitness of -0.119 ± 0.051.
QKPVSAYALFFRDTQAAIKGQNPNATFGEVSKIVASMWDSLGEEQKCVYKRKTEAAKKEYLKALAAYR gave an abundance fitness of -0.195 ± 0.061.
QKPVSAYALFFRDTQAAIKGQNPNATFGEVSKIVASMWDSLGEEQKIVYKRKTEAAKKEYLKALAAYR showed an abundance fitness of -0.498 ± 0.49.

— the Human Domainome abundance scans (Beltran et al. 2025)
